Measurements from article PMC3608632.

Columns and labels:
[1] = target: hyperphosphorylated R-topo I (CK2-treated baculovirus-expressed recombinant human topo I) (human) (UniProt P11387)
[2] = target: hyperphosphorylated R-topo I (CK2-treated baculovirus-expressed recombinant human topo I) (human) (UniProt P11387); settings: scale: % of supercoiled DNA converted to the relaxed form
[3] = target: basal phosphorylated baculovirus-expressed recombinant human topo I (R-topo I) (human) (UniProt P11387); settings: scale: % of supercoiled plasmid converted to the relaxed form
[4] = target: p14ARF (ARF) (UniProt Q8N726); assay: anti-FLAG IP, ARF Western; settings: reference: wild-type full-length topo I (construct 6); sites S506

non-covalent association of R-topo I with radiolabeled plasmid DNA (DNA co-immunoprecipitated with topo I; 75 mM NaCl, 4°C), ARF added at a 1:1 molar ratio; ~60% without ARF (% of input DNA) [1] | relaxation of supercoiled plasmid DNA by R-topo I with ARF added (∼70% without ARF) [2] | relaxation of supercoiled plasmid DNA by R-topo I with ARF added (about 40% without ARF) [3] | binding against the reference [4] | Substance
80 | 100 | 50 | – | recombinant thioredoxin-human ARF fusion protein (from UniProt Q8N726 1-132) (natural protein)
– | – | – | weaker | topoisomerase I (topo I) (from UniProt P11387) S506A full-length topo I (construct 9)
